Reference: US20100266576A1 (CENTRE NATIONAL DE LA RECHERCHE SCIENT, published 2010)

B1: VHH 61-3 (VHH)
VHH: EVQLQASGGGLVQAGGSLRLSCAASGSTFRINRMGWYRQAPGKQRELVASINSGGSTNYADSVKGRFTISRDNAKGTVNLTMNSLKPEDTAVYYCNRVTPWPYWGQGTQVTVS
notes: Expressed from pET22 and purified by Ni-NTA; also called CNCM I-2933
B2: VHH V31-1 (VHH)
VHH: EVQLQASGGGSVQPGGSLRLSCAASGFIFGWSTMSWVRQAPGKGLEWVSTISGGGSATTYTDSVKGRFTISRDRAKNTLYLQMNSLKPEDTAIYYCNADVSTGFRYQRKDYWGRGTQVTVS
notes: Camelid VHH subcloned from pHEN1 into pET22, expressed in the E. coli periplasm and purified by Ni-NTA IMAC; It was detected with anti-c-myc or anti-His tag antibodies; also called VHH V31-1 antibody; CNCM I-2936

What was measured:
[1] = target: T1, amyloid β peptide 42 (Aβ42); test: immunohistochemistry on human AD brain sections
T1 construct: Synthetic peptide bought from Bachem, used as monomer/oligomer mixtures after incubation at 37 C; also called Aβ42 monomer; Aβ42 oligomers
Description: Immunostaining of brain tissue was performed on […] thick paraffin sections. Sections were de-paraffinized in xylene, rehydrated through ethanol
(100%, 96%, and 90%) and finally brought to water. They were incubated in 90% formic acid, washed again in water, quenched for endogenous peroxidase with 3% hydrogen peroxyde and 20% methanol, and finally washed in water. Non-specific binding was blocked by incubating the sections for 10 minutes in 2% bovine serum albumin in TBS+0.5% Tween. Appropriate dilutions of primary antibodies were then applied overnight in a humidified chamber at room temperature (typically 1 μg/ml for VHH, and 1:200 for 6F/3D mAb). Slides were washed with TBS-Tween and incubated with secondary antibodies (rabbit anti-His Tag or biotinylated anti-mouse immunoglobulins) in TBS-Tween at room temperature for 2 hours. Slides were then incubated with either peroxidase goat anti-rabbit immunoglobulins or streptavidine-peroxidase fusions, and developed with diaminobenzidine (DAB) for 2 minutes. After washing with TBS-Tween, slides were counter-stained with hematoxylin and eosin.

peptide Aβ 29-40 = target: T2, peptide Aβ 29-40; test: competition ELISA in solution (Friguet method)
T2 construct: Bought from Bachem; also called Aβ42 fragment 29-40
T2 peptide: GAIIGLMVGGVV
Description: (§1) Binding affinity of VHH antibodies was determined as described in Friguet et al., (1985). Various concentrations of Aβ peptides were incubated in solution overnight at 4° C. with a known quantity of VHH antibody until equilibrium was reached. The VHH antibody concentration used was determined by preliminary ELISA calibrations. Each mixture (100 μl) was transferred to a well of a microtiter plate previously coated with antigen and was incubated for 20 min at 4° C. The plates were washed with buffer A and free VHH antibodies were detected by adding β-galactosidase-conjugated goat anti-rabbit Igs (Biosys, Compiegne, France) and 4-methylumbelliferyl β-D galactoside (Sigma). Fluorescence was read (Fluoroskan, Labsystem, Finland) at 460 nm, after excitation at 355 nm. KD was estimated from the slope of the regression curve obtained by plotting the reciprocal of the fraction of bound antibody versus the reciprocal of the molar concentration of antigen.

peptide Aβ 33-42 = target: T3, peptide Aβ 33-42; test: competition ELISA in solution (Friguet method)
T3 construct: Bought from Bachem; also called Aβ42 fragment 33-42
T3 peptide: GLMVGGVVIA
Description: as §1

Aβ42 fragment 15-25 = target: T4, Aβ42 fragment 15-25; test: competition ELISA for KD (Friguet method) with Aβ fragment peptides
T4 construct: Bought from Bachem; also called Aβ 15-25
T4 peptide: QKLVFFAEDVG
Description: as §1

Aβ42 fragment 1-11 = target: T5, Aβ42 fragment 1-11; test: as above
T5 construct: Bought from Bachem; also called Aβ 1-11; printed as fragment 1-10 in the result sentence
T5 peptide: DAEFRHDSGYE
Description: as §1

Aβ42 fragment 22-35 = target: T6, Aβ42 fragment 22-35; test: as above
T6 construct: Bought from Bachem; also called Aβ 22-35
T6 peptide: EDVGSNKGAIIGLM
Description: as §1

Aβ42 fragment 10-20 = target: T7, Aβ42 fragment 10-20; test: as above
T7 construct: Bought from Bachem; also called Aβ 10-20
T7 peptide: YEVHHQKLVFF
Description: as §1

T1 sequence (peptide, as listed by the source): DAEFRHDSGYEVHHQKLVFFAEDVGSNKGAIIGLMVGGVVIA

binding result [1]	Kd (peptide Aβ 29-40)	Kd (peptide Aβ 33-42)	binding result (Aβ42 fragment 15-25)	binding result (Aβ42 fragment 1-11)	binding result (Aβ42 fragment 22-35)	binding result (Aβ42 fragment 10-20)	Binder
binds	–	–	–	–	–	–	B1
–	20 nM	20 nM	no binding	no binding	no binding	no binding	B2
